From article PMC12234435, “Monoclonal antibody neutralizes Staphylococcus aureus serine protease-like protein B (SplB)-induced pathology” (Infection and Immunity, 2025)

Assays:
[1] = molecular target: T1, recombinant tag-free Staphylococcus aureus serine protease-like protein B (SplB) (Staphylococcus aureus (strain NCTC 8325 …, UniProt Q2FXC3)); assay: cell-based or functional assay
[2] = molecular target: T2, recombinant tag-free Staphylococcus aureus serine protease-like protein E (SplE) (Staphylococcus aureus (strain NCTC 8325 …, UniProt Q2FXC7)); assay: ELISA; indirect ELISA for cross-reactivity with recombinant tag-free SplA, SplD, SplE and SplF; settings: both partners purified
T2 construct: serine protease-like protein E (SplE) of Staphylococcus aureus, tag-free

[3] = molecular target: T3, recombinant tag-free Staphylococcus aureus serine protease-like protein A (SplA) (Staphylococcus aureus NCTC 8325 (strain …, UniProt Q2FXC2)); assay: as above; settings: both partners purified
T3 construct: serine protease-like protein A (SplA) of Staphylococcus aureus, tag-free

[4] = molecular target: T4, recombinant tag-free Staphylococcus aureus serine protease-like protein F (SplF) (Staphylococcus aureus (strain NCTC 8325 …, UniProt Q2FXC8)); assay: as above; settings: both partners purified
T4 construct: serine protease-like protein F (SplF) of Staphylococcus aureus, tag-free

[5] = molecular target: T5, recombinant tag-free Staphylococcus aureus serine protease-like protein D (SplD) (Staphylococcus aureus (strain NCTC 8325 …, UniProt Q2FXC5)); assay: as above; settings: both partners purified
T5 construct: serine protease-like protein D (SplD) of Staphylococcus aureus, tag-free

[6] = molecular target: T6, native SplB in the extracellular proteins of S. aureus D29 (Staphylococcus aureus D29 (USA300 …, UniProt Q2FFT0, strain)); assay: Western blot; 5 µg extracellular proteins of S. aureus NCTC 8325-4 and D29 denatured, SDS-PAGE, blotted on PVDF; α-SplB1 300 ng/mL overnight at 4°C as primary antibody; settings: one partner purified
T6 construct: serine protease-like protein B (SplB), secreted by S. aureus D29, a community-acquired USA300 derivative (CC8); no identifier printed for this strain's SplB; Denatured, separated by SDS-PAGE and blotted; also called SplB in the ECP preparation

[7] = molecular target: T1, recombinant tag-free Staphylococcus …; assay: MST; RED-NHS-labelled tag-free SplB (40 nM) constant, α-SplB1 serially diluted from 3.42 µM to 0.209 nM; MST buffer with 0.05% Tween-20; RT; Monolith NT.115, 100% excitation power, 40% MST power; settings: both partners purified

B1: murine anti-SplB monoclonal antibody α-SplB1 (antibody, V domains shown)
VH: EVQLQESGPGILQSSQTLSLTCSFSGFSLNSVGMGVTWIRQPSGKGLEWLAHIYWDDDKLYNSSLKSRLTISKDTSRNQVFLNITSVVSADTATYYCARRVYGISYDYWYFDVWGTGTAVTVSS
VL: DILMTQSPATLSVTPGDRVSLSCRASQSISDYLHWYQQKSHESPRLLIKYASQSISGIPSRFSGSGSGSDFTLSINSVEPEDVGVYYCQNGHIFPPTFGAGTKLELK
notes: variable region of the heavy chain; mouse IgG1 heavy chain constant region (isotyping: IgG1 subclass); variable region of the light chain; mouse kappa light chain constant region (isotyping: κ light chains); IgG1, kappa; Raised against SplB-Strep; also called α-SplB1 mAb; anti-SplB mAb; source: hybridoma supernatant (C57BL/6N splenocytes fused with P3X63Ag8.653), purified (Protein-G-Sepharose)
neutralisation of the cleavage of the synthetic substrate Ac-VEID-MCA by 2.5 µM tag-free SplB, pre-incubated with α-SplB1 at molar ratios 1:1 to 1:8 (SplB:α-SplB1), 37°C, 1 h [1]: 66 % neutralised (at 1:1 molar ratio; complete at 1:2)
binding result [2]: no binding
binding result [3]: no binding
binding result [4]: no binding
binding result [5]: no binding
binding result [6]: binds
Kd [7]: 37.9 nM
